From patent US8735129B2, “Ginsenoside glycosidase derived from the genus Terrabacter, and use thereof” (Korea Research Institute of Bioscience and Biotechnology, priority 2009, dated 2014)

How the values were obtained:
[1] = Specific activity of the enzyme with pNPGlc; assay type: biochemical
Description: Specific activity was measured using 90 μl of 50 mM sodium phosphate buffer containing 2.0 mM pNPGlc (p-nitrophenyl-β-D-glucopyranoside; Sigma) at pH 7.0, and 10 μl of the diluted purified enzyme was treated at 37° C. for 20 minutes before initiation of the reaction, followed by incubation. 0.1 ml of 1 M Na2CO3 was treated for 5 minutes to terminate the reaction, and the secretion of p-nitrophenol was immediately measured at 405 nm. One unit of activity was defined as the amount of enzyme that released 1 μmol of p-nitrophenol per minute. Specific activity is expressed in units per milligram protein. Protein concentration was measured using a Bio-Rad protein staining reagent according to the protocol. All analyses were performed at least three times.

[2] = Kinetic studies (Km, Vmax) with pNPGlc; assay type: biochemical; details: hydrolysis of pNPGlc, 37° C., Cleland program
Description: Kinetic studies were performed with freshly purified enzyme using pNPGlc at the concentrations from 0.1 mM to 0.6 mM. Its absorbance at 405 nm was monitored at 37° C. for 20 minutes. The resulting data were used to determine Km and Vmax using the Enzyme Kinetics Program reported by Cleland.
In order to examine the substrate specificity of Bgl-gyp17, it was incubated in 50 mM sodium phosphate buffer containing 2.0 mM βα and β-type p-NP (p-nitrophenyl) and oNP (O-nitrophenyl)-glycosidase at pH 7.0 and 37° C. […] The Km and Vmax for the hydrolysis of pNPGlc by ginsenoside glycosidase were determined using 0-2 mM substrate and the enzyme kinetics program reported by Cleland. The values measured by the program were 4.24 mM and 0.10 mmol*min^−1*mg of protein^−1 for pNpGlc.

[3] = assay type: biochemical; details: after incubation at 45° C. for 30 minutes
Description: The thermo-dependence of the activity was assayed in 50 mM potassium phosphate buffer at various temperatures ranging from 4 to 90° C. Thermostability was tested by incubating aliquots of the enzyme in 50 mM potassium phosphate buffer for 30 minutes at different temperatures. After cooling the sample on ice for 10 minutes, residual activity was determined by a standard analysis;
The pH effect on the enzymatic activity was measured using 2.0 mM pNPGlc in the following buffer (50 mM):
Buffer: pH range of 2 to 10: KCl—HCl (pH 2), glycine-HCl (pH 3), sodium acetic acid (pH 4 and 5), sodium phosphate (pH 6 and 7), Tris-HCl (pH 8 and 9) and glycine-sodium hydroxide (pH 10).
The enzyme was incubated in each of the above mentioned buffers at 4° C. for 24 hours, and then pHPGlc was analyzed in 50 mM potassium buffer to measure the enzymatic stability according to pH change. The activity was measured by the above mentioned method.
The results were represented as an activity probability obtained at the optimum pH.
The temperature-dependent activity in the 50 mM potassium phosphate buffer was analyzed within the temperature range of 4-90° C. using 2.0 mM pNPGlc at the optimum pH for 5 minutes. […] The sample was cooled in ice for 10 minutes, and the residual activity was measured by pNPGlc analysis.

B1: Bgl-gyp17: recombinant ginsenoside glycosidase from Terrabacter Gsoil 3082, SEQ ID NO. 1, 589 residues (protein, listed as Terrebacter sp.)
chain: MDPYEDPRLPVEVRVEDLLGRLSLEEKVGLMFQTVIEAGSDGTVLEHPGSISKSPTSTVVLDKHLTHFNVHALDDPRMAARWSNALQALAERTPHGIPVTVSTDPRHAFIENVGVSFSAGAFSQWPEPLGLAALRDADAVRRFADIARQEYVAVGIRAALHPTLDLATEPRWARQAGTFGQDPDLVTELGVAYLKGFQGDSLGSGSVACTSKHFPGGGPQKDGEDAHFPYGREQVYPGGRFADHLKPFPPIIEAGTAGIMPYYGMPVDLVVDGVEIEPIGFGYNKQVVTGLLREKLGYDGVVVTDWELVNDNHVGDQVLPARAWGVEHLDPHGRMELILEAGADQFGGEECVEILLDLVAQGRVTEARVDESARRILAVKFRLGLFENPYVDEDEAAATVGRDDFREEGYAAQARSVTVLHHEGGRLPLEHGLRIYAEQVSPEAVARHGKLVDRPEDADVAVVRLTAPFDPRSDLFLESWFHQGSLDFPPGLVARLERIAAVCPLVVDVVLDRPAVLTPLLRFASAVVGSFGSCDDALLDALTGTIAPVGRLPFDLPRSMDQVRAHGEDVPGYDDPLFPFGHGLRLDTE
modifications: PEPTIDE (1)..(589) amino acid sequence of Bgl-gyp17
notes: 1, 589 residues
- specific activity at 100% ([1]; control without metal ions or reagents, Table 5): ^aThe specific activity at 100% was 44.3 U/mg.
- Specific activity (U/mg) ([1]; purification step: Crude extract): 23.4 U/mg
- Specific activity (U/mg) ([1]; purification step: DEAE-cellulose purification): 65.8 U/mg
- Specific activity (U/mg) ([1]; purification step: Ni purification): 65.0 U/mg
- Km [2]: 4.24 mM
- Vmax [2]: 0.10 mmol*min^−1*mg of protein^−1
- loss of activity [3]: approximately 32%
